B1: non-specific protein-tyrosine kinase (Homo sapiens), A9UEZ6 (parent)
chain: MVDPVGFAEAWKAQFPDSEPPRMELRSVGDIEQELERCKASIRRLEQEVNQERFRMIYLQTLLAKEKKSYDRQRWGFRRAAQAPDGASEPRASASRPQPAPADGADPPPAEEPEARPDGEGSPGKARPGTARRPGAAASGERDDRGPPASVAALRSNFERIRKGHGQPGADAEKPFYVNVEFHHERGLVKVNDKEVSDRISSLGSQAMQMERKKSQHGAGSSVGDASRPPYRGRSSESSCGVDGDYEDAELNPRFLKDNLIDANGGSRPPWPPLEYQPYQSIYVGGMMEGEGKGPLLRSQSTSEQEKRLTWPRRSYSPRSFEDCGGGYTPDCSSNENLTSSEEDFSSGQSSRVSPSPTTYRMFRDKSRSPSQNSQQSFDSSSPPTPQCHKRHRHCPVVVSEATIVGVRKTGQIWPNDGEGAFHGDADGSFGTPPGYGCAADRAEEQRRHQDGLPYIDDSPSSSPHLSSKGRGSRDALVSGALESTKASELDLEKGLEMRKWVLSGILASEETYLSHLEALLLPMKPLKAAATTSQPVLTSQQIETIFFKVPELYEIHKEFYDGLFPRVQQWSHQQRVGDLFQKLASQLGVYRVLGYNHNGEWCEAQTKNGQGWVPSNYITPVNSLEKHSWYHGPVSRNAAEYLLSSGINGSFLVRESESSPGQRSISLRYEGRVYHYRINTASDGKLYVSSESRFNTLAELVHHHSTVADGLITTLHYPAPKRNKPTVYGVSPNYDKWEMERTDITMKHKLGGGQYGEVYEGVWKKYSLTVAVKTLKEDTMEVEEFLKEAAVMKEIKHPNLVQLLGVCTREPPFYIITEFMTYGNLLDYLRECNRQEVNAVVLLYMATQISSAMEYLEKKNFIHRDLAARNCLVGENHLVKVADFGLSRLMTGDTYTAHAGAKFPIKWTAPESLAYNKFSIKSDVWAFGVLLWEIATYGMSPYPGIDLSQVYELLEKDYRMERPEGCPEKVYELMRACWQWNPSDRPSFAEIHQAFETMFQESSISDEVEKELGKQGVRGAVSTLLQAPELPTKTRTSRRAAEHRDTTDVPEMPHSKGQGESDPLDHEPAVSPLLPRKERGPPEGGLNEDERLLPKDKKTNLFSALIKKKKKTAPTPPKRSSSFREMDGQPERRGAGEEEGRDISNGALAFTPLDTADPAKSPKPSNGAGVPNGALRESGGSGFRSPHLWKKSSTLTSSRLATGEEEGGGSSSKRFLRSCSASCVPHGAKDTEWRSVTLPRDLQSTGRQFDSSTFGGHKSEKPALPRKRAGENRSDQVTRGTVTPPPRLVKKNEEAADEVFKDIMESSPGSSPPNLTPKPLRRQVTVAPASGLPHKEEAGKGSALGTPAAAEPVTPTSKAGSGAPGGTSKGPAEESRVRRHKHSSESPGRDKGKLSRLKPAPPPPPAASAGKAGGKPSQSPSQEAAGEAVLGAKTKATSLVDAVNSDAAKPSQPGEGLKKPVLPATPKPQSAKPSGTPISPAPVPSTLPSASSALAGDQPSSTAFIPLISTRVSLRKTRQPPERIASGAITKGVVLDSTEALCLAISRNSEQMASHSAVLEAGKNLYTFCVSYVDSIQQMRNKFAFREAINKLENNLRELQICPATAGSGPAATQDFSKLLSSVKEISDIVQR

Variants of: B1
Conditions: with hs90b_human HSP90AB1, P08238
Chain of hs90b_human HSP90AB1, P08238 (P08238 whole entry): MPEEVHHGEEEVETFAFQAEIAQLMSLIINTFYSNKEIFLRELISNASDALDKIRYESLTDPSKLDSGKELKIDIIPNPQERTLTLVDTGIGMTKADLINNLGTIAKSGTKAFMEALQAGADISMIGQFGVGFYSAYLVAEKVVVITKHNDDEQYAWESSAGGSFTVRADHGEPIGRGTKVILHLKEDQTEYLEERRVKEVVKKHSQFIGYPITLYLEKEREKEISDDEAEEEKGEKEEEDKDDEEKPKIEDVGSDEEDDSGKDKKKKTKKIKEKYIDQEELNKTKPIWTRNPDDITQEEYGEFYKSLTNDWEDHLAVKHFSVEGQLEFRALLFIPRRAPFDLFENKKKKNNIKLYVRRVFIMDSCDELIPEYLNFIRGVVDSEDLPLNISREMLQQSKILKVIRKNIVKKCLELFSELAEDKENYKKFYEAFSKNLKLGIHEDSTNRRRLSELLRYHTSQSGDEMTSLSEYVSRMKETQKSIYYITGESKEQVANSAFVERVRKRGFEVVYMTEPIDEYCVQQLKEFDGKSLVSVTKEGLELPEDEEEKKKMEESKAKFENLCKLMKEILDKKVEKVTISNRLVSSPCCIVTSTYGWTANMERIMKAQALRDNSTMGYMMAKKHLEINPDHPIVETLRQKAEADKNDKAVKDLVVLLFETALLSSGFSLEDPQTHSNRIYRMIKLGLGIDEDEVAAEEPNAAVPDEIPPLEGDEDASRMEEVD

Variant | effect of a mutation on the interaction
M747I | decreasing interaction
M975I | increasing interaction
